Reference: patent publication US20180177166

Experiments:
Assay in all cases: cell_activity
[1] = system: ssMYF5 1.1 TALEN left (synthetic (Xanthomonas TALE-FokI)?); conditions: TALEN pair with P4, triplex transfection with HDR oligo, pig fibroblasts, HindIII RFLP
[2] = system: ssMYF6 1.2 TALEN left (synthetic (Xanthomonas TALE-FokI)?); conditions: TALEN pair with P6, triplex transfection with HDR oligo, pig fibroblasts, HindIII RFLP
[3] = system: ssMYOD 1.2 TALEN right (synthetic (Xanthomonas TALE-FokI)?); conditions: TALEN pair with P1, pig fibroblasts
[4] = system: ssMYOD 1.2 TALEN left (synthetic (Xanthomonas TALE-FokI)?); conditions: TALEN pair with P2, triplex transfection with HDR oligo, pig fibroblasts, HindIII RFLP
[5] = system: ssMYF5 1.1 TALEN right (synthetic (Xanthomonas TALE-FokI)?); conditions: TALEN pair with P3, pig fibroblasts; site printed on top strand
[6] = system: ssMYF6 1.2 TALEN right (synthetic (Xanthomonas TALE-FokI)?); conditions: TALEN pair with P5, pig fibroblasts; site printed on top strand

“GCCTCATGTGGGCCTG (double strand) [ssMYF5 1.1 left half-site]” showed an activity (% HDR alleles) [1] of 31.
In the case of “GCCAGGACCAAATGCC (double strand) [ssMYF6 1.2 left half-site]”, the activity (% HDR alleles) [2] is reported as 36.
“AGGCTGCCCAAGGTGG (double strand) [ssMYOD 1.2 right half-site]” showed an activity (% HDR alleles) [3] of 14.
“CAAGAGGTGCACCAC (double strand) [ssMYOD 1.2 left half-site]” gave an activity (% HDR alleles) [4] of 14.
In the case of “AAATCCACCACCATGG (double strand) [ssMYF5 1.1 right half-site]”, the activity (% HDR alleles) [5] is reported as 31.
With “GACAGCAGTGGAGAGGA (double strand) [ssMYF6 1.2 right half-site]” the activity (% HDR alleles) [6] was 36.
